Reference: US20200239535A1

Target: cell surface of 293 AAV cells (the filing names αvβ3 and αvβ5 integrins as the receptors of RGD4C)
Assay: 200000 TU/cell incubated 1 h on ice with 293AAV cells; unbound particles recovered from the medium, titrated on TG1 E. coli and counted as colonies; value relative to its control

Substance	binding efficiency (percentage of vectors bound to the cell surface) [%]
M13.PAAV vector (non-targeted phagemid/AAV particle lacking RGD4C) (from UniProt P69168 19-424)	7.1
RGD.PAAV vector (RGD4C-targeted phagemid/AAV particle displaying the RGD4C peptide on the pIII minor coat protein)	58.2
